This is an account of results in patent US12053511B2, “Cystatin C and Cystatin 9 to treat gut inflammation caused by thermal injury” (priority 2016, dated 2024).

Assay [1] relates to Burkholderia thialandensis (ATCC). Briefly: Viability and virulence of pathogenic bacterial strains. In kind it is cell-based. As to conditions: 50 pg dose.
The test system of assay [2] is Klebsellia pneumoniae (isolate from burn patient lung). The description is as above. It counts as cell-based. As to conditions: 50 pg dose.
The next assay relates to E. coli O157:H7 (ATCC). The assay is described as above. It counts as cell-based. As to conditions: 50 pg dose.
For assay [3], the system named is Pseudomonas aeruginosa (isolate from burn patient wound). The description is as above. In kind it is cell-based. As to conditions: 50 pg dose.
Assay [4] relates to Salmonella typhimurium (ATCC). The assay is described as above. It counts as cell-based. As to conditions: 50 pg dose.
The test system of assay [5] is human monocyte-derived macrophage (MDM). Kind of assay: Macrophage killing of pathogens. In kind it is cell-based. As to conditions: same five pathogens.
The subject of a further assay is EC 083:H1 and flagellin. Briefly: Mouse model of infection and thermal injury, survival. It counts as in vivo, Balb/c mice. As to conditions: i.p. 500 pg rCST9 and/or 50 pg rCSTC; 1000 ng flagellin + 1×10^7 CFU EC 083:H1 i.p.; 30% TBSA burn; observed 10 days. The procedure:
(§1) Mice were intraperitoneally (i.p.) challenged with 1×10^7 CFU of an intestinal isolate E. coli (EC) and 1000 ng of flagellin then treated i.p. with 500 pg rCST9 and/or 50 pg rCSTC followed by a 30% full-thickness thermal injury (30% TBSA). […] Additional groups of infected, rCST treated and/or thermally injured mice were euthanized at 24 and 48 h post-thermal injury to collect serum and harvest intestinal samples. Cytokines were quantified in the serum and analysis of the gut microbiome.
Female Balb/c mice (n=6 mice/group), weighing 19-21 grams (Jackson Laboratories), were housed in a facility approved by the Association for Assessment and Accreditation for Laboratory Animal Care (AAALAC). Mice were allowed to adjust to their environment for at least seven days prior to the study and given access to food and water throughout the entire study. All animal procedures were approved by University of Texas Medical Branch IACUC and performed humanely with minimal suffering. Briefly, mice were shaved dorsally the morning of experimentation as previously described (8). The mice were given an i.p. challenge of 1000 ng of flagellin and 1×10^7 CFU/mouse of EC 083:H1 and then treated with 500 pg of rCST9 and/or 50 pg of rCSTC. Immediately following treatment, mice were anesthetized with pentobarbital (Nembutal) and subjected to a 30% total body surface area (TBSA) burn injury. […]

The subject of a further assay is gut microbiome. Briefly: Gut microbiome by 16S next generation sequencing, infection and thermal injury model. In kind it is in vivo, Balb/c mice. As for the experimental part:
as §1
Gut samples were harvested at 24 and 48 h from the same 4 mouse groups euthanized to collect sera as described above. As we reported in a previous publication (8), briefly, approximately 3 mm^3 pieces of the intestine (close to the cecum) were sterilely harvested from each mouse. For gut microbiome analysis, DNA from intestinal samples was extracted from samples lysed in MagNA Pure DNA Tissue Lysis Buffer followed by automated extraction on a MagNA Pure 96 platform (Roche). The isolated DNA was amplified using a panel of five “universal” primer pairs (Ion Xpress Barcodes) that created overlapping 400 bp DNA fragments covering 95% of the bacterial 16S rDNA. Barcoded amplimers were mixed at equimolar ratios and then subjected to Ion Torrent NGS (Thermo Scientific). Average read length was >300 bases with sequence generated from both strands. Reads were filtered and binned according to Ion Xpress barcode with Ion Torrent Suite software (v 4.0.2). Sequencing reads were then further processed using Galaxy software where each barcode was trimmed to remove the primer sequence. The 16S sequences were compared to the SILVA database using bowtie 2 software to yield species or genera level matches to return the hit-rate. Where multiple calls to the same genera were made the number of hits were added accordingly. Hit rates were converted to percentage of total to give an overall ratio of the sequenced microbiome.

Setting [6] is: individual treatment, 24 and 48 h post-burn.

B1: rCST9: human recombinant cystatin 9, cysteine proteinase inhibitor; purchased from American Research Products, Inc. (protein, UniProt Q5W186 29-159, looked up)
Cystatin-9: WCSEEEMGGNNKIVQDPMFLATVEFALNTFNVQSKEEHAYRLLRVLSSWREDSMDRKWRGKMVFSMNLQLRQTVCRKFEDDIDNCPFQESLELNNVRQGISFPQVHSCGCCMGCGVGTGAADKAIPRDKGK
On to B1, for which the viability and virulence entry in assay [1] is “retarded the viability and virulence”; in assay [2], “retarded the viability and virulence”; in the assay with E. coli O157:H7 (ATCC), “retarded the viability and virulence”; in assay [3], “retarded the viability and virulence”; in assay [4], “retarded the viability and virulence”. Also, the “MDM killing of pathogens” value in assay [5] is “induced human monocyte-derived macrophage (MDM) killing”. For the same molecule, the survival result in the assay with EC 083:H1 and flagellin is listed as “did not improve survival”. Further, in the assay on gut microbiome (setting [6]), the gut microbiome profile result is listed as “preserved the gut microbiome that was equivalent to sham controls”.

B2: rCSTC: human recombinant cystatin C (CST3), cysteine proteinase inhibitor; purchased from R&D Systems (protein, UniProt P01034 27-146, looked up)
Cystatin-C: SSPGKPPRLVGGPMDASVEEEGVRRALDFAVGEYNKASNDMYHSRALQVVRARKQIVAGVNYFLDVELGRTTCTKTQPNLDNCPFHDQPHLKRKAFCSFQIYAVPWQGTMTLSKSTCQDA
For B2, in the assay on gut microbiome (24 h post-burn), the “Bacteroidales S24-7 in gut microbiome” value is listed as “noticeable but moderate increase” and the “Lachnospiraceae family in gut microbiome” value is “proportionate decrease”. In the assay with gut microbiome (48 h post-burn), the gut microbiome profile entry was “nearly equivalent to sham controls”. In the assay with gut microbiome (setting [6]), the gut microbiome profile entry is listed as “preserved the gut microbiome that was equivalent to sham controls”.
